The values below come from PMC4866608 (Archives of biochemistry and biophysics, 2015).

Assay [1] deals with 2-hydroxymuconate semialdehyde dehydrogenase (NahI) from Pseudomonas putida G7, His-tag removed (GH-NahI) (Pseudomonas putida G7). In words: dynamic light scattering.
Assay [2] shares this target. In words: small-angle X-ray scattering.
For the next assay, the target named is T1, NahI (GH-NahI) (Pseudomonas putida, UniProt Q1XGK8).
T1 sequence (Q1XGK8 1-486): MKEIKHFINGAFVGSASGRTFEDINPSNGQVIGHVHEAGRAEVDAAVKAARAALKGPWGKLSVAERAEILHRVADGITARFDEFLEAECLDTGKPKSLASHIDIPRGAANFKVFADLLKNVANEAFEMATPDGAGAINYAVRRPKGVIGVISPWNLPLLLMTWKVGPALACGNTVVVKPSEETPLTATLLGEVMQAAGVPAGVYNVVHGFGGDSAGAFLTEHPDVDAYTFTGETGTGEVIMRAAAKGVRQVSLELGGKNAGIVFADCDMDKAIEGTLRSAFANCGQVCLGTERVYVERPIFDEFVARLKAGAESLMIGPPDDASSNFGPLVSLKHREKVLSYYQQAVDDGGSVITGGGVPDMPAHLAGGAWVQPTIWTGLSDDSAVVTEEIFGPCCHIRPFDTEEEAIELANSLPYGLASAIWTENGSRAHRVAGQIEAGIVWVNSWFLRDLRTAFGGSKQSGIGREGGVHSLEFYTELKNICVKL
In words: CD thermal denaturation at […] nm. The format is binding. The conditions noted are these: 50 mM sodium phosphate pH 7.4, 50 mM NaCl, 0.3 mg/mL protein; two-step denaturation.

In general, stoichiometry N refers to the number of molecules, sites or subunits per partner or assembly. “2-hydroxymuconate semialdehyde dehydrogenase (NahI) from Pseudomonas putida G7, His-tag removed (GH-NahI) (enzyme)”: the stoichiometry N in assay [1] came out at 3; in assay [2], 4.

Regarding `NC(=O)c1ccc[n+]([C@@H]2O[C@H](COP(=O)(O)OP(=O)(O)OC[C@H]3O[C@@H](n4cnc5c(N)ncnc54)[C@H](O)[C@@H]3O)[C@@H](O)[C@H]2O)c1` [NAD^+], the “second transition temperature of the NAD+ complex (apo enzyme 73.9 °C)” value on NahI (GH-NahI) was 76.7 °C.
